Assay [1] deals with T1, Complement Factor H protein (human, UniProt P08603 19-1231).
T1 construct: Plasma protein, bought purified or present in normal human serum; also called FH; CFH
The experiment in a line: bispecific ELISA: BSA-DNP coat, antibody, then FH, FH detected. As to the method:
(§1) BsAbs were tested for binding to both antigens in a bispecific ELISA. MaxiSorp plates (Thermo Scientific, Nunc, 430341) were coated with 50 μL/well BSA-DNP (10 μg/mL, Biosearch Technologies, D-5050-10, conjugation ration 13) in coating buffer (0.1 M Na₂CO₃/NaHCO₃PH 9.6) for 1 hour at 37° C. After every incubation, plates were washed three times with PBS/0.05% Tween 20. Plates were blocked with 100 μL/well PBS/1% BSA for 1 hour at 37° C. After washing, plates were incubated with 50 μL/well (bs) Abs diluted in PBS/0.05% Tween 20/1% BSA (PTB buffer) for 1 hour at 37° C. Next, 1 μg/mL FH (CompTech, A137) or C4BP (CompTech, A109) diluted in PTB buffer was added. FH was detected using goat anti-human FH (Quidel, A312) and HRP-labeled rabbit anti-goat Ig (Dako, P0449), and C4BP was detected using rabbit anti-human C4BP (kind gift from Anna M. Blom, Malmö, Sweden) and HRP-labeled goat anti-rabbit Ig (Dako, P0448), all diluted in PTB buffer. Plates were developed by incubating with 50 μL/well ABTS (Merck, A1888-5G) containing 1:2000 diluted H₂O₂ (Merck, 1072090250), and read at 415 nm using a microplate reader (BIO-RAD iMark). It was confirmed by ELISA that the bsAbs can bind to a specific target (e.g., DNP as a model antigen) as well as FH or C4BP, whereas the parental monospecific antibodies cannot (FIG. 1A).

The target of assay [2] is T2, C4b-binding protein (human, UniProt P04003 49-597; P20851 18-252).
T2 construct: also called C4BP
T2 sequence (looked up) 1: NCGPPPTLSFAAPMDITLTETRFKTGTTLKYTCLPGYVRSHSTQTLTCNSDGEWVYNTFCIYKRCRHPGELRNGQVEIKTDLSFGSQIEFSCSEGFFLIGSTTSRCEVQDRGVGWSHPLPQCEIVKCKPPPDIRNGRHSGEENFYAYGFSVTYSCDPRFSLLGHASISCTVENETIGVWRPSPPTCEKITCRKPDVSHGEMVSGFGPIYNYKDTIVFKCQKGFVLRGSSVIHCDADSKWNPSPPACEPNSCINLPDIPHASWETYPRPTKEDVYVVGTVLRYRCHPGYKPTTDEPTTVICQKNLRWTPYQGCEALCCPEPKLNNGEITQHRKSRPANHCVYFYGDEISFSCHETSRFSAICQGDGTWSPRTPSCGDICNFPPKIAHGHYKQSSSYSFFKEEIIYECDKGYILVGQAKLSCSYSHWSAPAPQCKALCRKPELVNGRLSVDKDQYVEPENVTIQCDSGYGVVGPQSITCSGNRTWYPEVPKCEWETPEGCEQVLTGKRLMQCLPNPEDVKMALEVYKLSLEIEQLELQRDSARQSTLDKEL
T2 sequence (looked up) 2: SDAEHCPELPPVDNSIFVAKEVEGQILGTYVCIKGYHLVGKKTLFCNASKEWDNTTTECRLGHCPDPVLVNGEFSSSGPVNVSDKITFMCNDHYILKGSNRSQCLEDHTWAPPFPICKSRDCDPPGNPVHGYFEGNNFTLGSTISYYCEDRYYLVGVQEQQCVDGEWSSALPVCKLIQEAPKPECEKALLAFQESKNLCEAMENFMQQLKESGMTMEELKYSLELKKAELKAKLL
Nature of the assay: bispecific ELISA: BSA-DNP coat, antibody, then C4BP, C4BP detected. As for the experimental part:
as §1

In assay [3] the target is T2, C4b-binding protein. Nature of the assay: bispecific ELISA. As to the method:
as §1

Assay [4] deals with T1, Complement Factor H protein. The experiment in a line: bispecific ELISA and complement activation assay on biotinylated BSA-DNP, FH detected.

T1 sequence (P08603 19-1231 limits assumed): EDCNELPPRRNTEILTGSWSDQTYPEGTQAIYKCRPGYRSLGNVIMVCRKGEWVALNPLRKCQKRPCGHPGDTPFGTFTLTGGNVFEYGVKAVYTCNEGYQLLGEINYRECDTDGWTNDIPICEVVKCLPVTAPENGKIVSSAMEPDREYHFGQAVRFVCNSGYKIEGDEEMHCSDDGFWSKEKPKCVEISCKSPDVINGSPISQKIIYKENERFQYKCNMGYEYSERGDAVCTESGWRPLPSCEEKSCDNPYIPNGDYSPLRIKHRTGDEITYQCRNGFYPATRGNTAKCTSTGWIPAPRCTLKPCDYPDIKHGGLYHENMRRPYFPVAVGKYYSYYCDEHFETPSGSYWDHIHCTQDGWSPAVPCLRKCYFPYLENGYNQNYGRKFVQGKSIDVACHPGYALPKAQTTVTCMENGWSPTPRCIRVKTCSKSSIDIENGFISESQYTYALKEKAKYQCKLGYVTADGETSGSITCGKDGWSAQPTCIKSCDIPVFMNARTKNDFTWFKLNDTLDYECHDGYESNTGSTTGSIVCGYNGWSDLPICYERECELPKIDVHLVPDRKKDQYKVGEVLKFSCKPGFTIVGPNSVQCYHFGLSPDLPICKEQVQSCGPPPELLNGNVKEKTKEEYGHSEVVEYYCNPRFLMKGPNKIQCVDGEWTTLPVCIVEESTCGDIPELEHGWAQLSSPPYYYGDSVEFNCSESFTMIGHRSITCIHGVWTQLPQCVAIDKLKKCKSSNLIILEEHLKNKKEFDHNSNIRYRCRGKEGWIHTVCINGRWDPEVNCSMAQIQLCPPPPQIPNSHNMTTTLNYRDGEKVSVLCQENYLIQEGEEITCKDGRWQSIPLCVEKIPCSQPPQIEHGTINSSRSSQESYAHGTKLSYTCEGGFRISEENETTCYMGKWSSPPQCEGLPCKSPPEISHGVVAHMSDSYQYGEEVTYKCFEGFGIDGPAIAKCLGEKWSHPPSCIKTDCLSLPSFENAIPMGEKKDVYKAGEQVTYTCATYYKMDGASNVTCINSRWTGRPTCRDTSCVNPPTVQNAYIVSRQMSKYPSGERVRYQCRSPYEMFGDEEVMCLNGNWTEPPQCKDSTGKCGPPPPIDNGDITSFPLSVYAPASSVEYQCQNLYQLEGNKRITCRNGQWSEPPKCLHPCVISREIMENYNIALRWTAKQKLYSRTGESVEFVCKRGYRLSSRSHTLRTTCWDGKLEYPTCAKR

B1: Anti-DNP K409R LALAPG (antibody, human IgG1, kappa, L234A L235A, V domains shown)
VH: DVRLQESGPGLVKPSQSLSLTCSVTGYSITNSYYWNWIRQFPGNKLEWMVYIGYDGSNNYNPSLKNRISITRDTSKNQFFLKLNSVTTEDTATYYCARATYYGNYRGFAYWGQGTLVTVSA
VL: DIRMTQTTSSLSASLGDRVTISCRASQDISNYLNWYQQKPDGTVKLLIYYTSRLHSGVPSRFSGSGSGTDYSLTISNLEQEDIATYFCQQGNTLPWTFGGGTKLEIKR
notes: also called anti-DNP parental Ab; parental monospecific antibody
In the case of B1, the binding result is given as “no binding (tested: 1 µg/mL FH)” in assay [1] and “no binding (tested: 1 µg/mL C4BP)” in assay [2].

B2: Anti-C4BP F405L LALAPG, Anti-DNP K409R LALAPG (bispecific antibody, human IgG1, kappa, L234A L235A)
heavy 1: EVQLVESGGGLVKPGGSLKLSCAVSGFIFSDYYMYWVRQTPEKRLEWVATISDGGVYTYYPDSMKGRFTISRDNAKNNLYLQMSSLKSEDTAMYYCVRGDYYGNSLDYWGQGTSVTVSSASTKGPSVFPLAPSSKSTSGGTAALGCLVKDYFPEPVTVSWNSGALTSGVHTFPAVLQSSGLYSLSSVVTVPSSSLGTQTYICNVNHKPSNTKVDKRVEPKSCDKTHTCPPCPAPEAAGGPSVFLFPPKPKDTLMISRTPEVTCVVVDVSHEDPEVKFNWYVDGVEVHNAKTKPREEQYNSTYRVVSVLTVLHQDWLNGKEYKCKVSNKALGAPIEKTISKAKGQPREPQVYTLPPSREEMTKNQVSLTCLVKGFYPSDIAVEWESNGQPENNYKTTPPVLDSDGSFLLYSKLTVDKSRWQQGNVFSCSVMHEALHNHYTQKSLSLSPGK
light 1: DVVMTQTPLTLSITIGQPASISCKSSQSLLDGDGKTYLNWLLQRPGQSPKRLIYLVSKLDSGVPDRFTGSGSGTDFTLKISRVEAEDLGVYYCCQGTHFPWTFGRGTKLEIKRTVAAPSVFIFPPSDEQLKSGTASVVCLLNNFYPREAKVQWKVDNALQSGNSQESVTEQDSKDSTYSLSSTLTLSKADYEKHKVYACEVTHQGLSSPVTKSFNRGEC
heavy 2: DVRLQESGPGLVKPSQSLSLTCSVTGYSITNSYYWNWIRQFPGNKLEWMVYIGYDGSNNYNPSLKNRISITRDTSKNQFFLKLNSVTTEDTATYYCARATYYGNYRGFAYWGQGTLVTVSAASTKGPSVFPLAPSSKSTSGGTAALGCLVKDYFPEPVTVSWNSGALTSGVHTFPAVLQSSGLYSLSSVVTVPSSSLGTQTYICNVNHKPSNTKVDKRVEPKSCDKTHTCPPCPAPEAAGGPSVFLFPPKPKDTLMISRTPEVTCVVVDVSHEDPEVKFNWYVDGVEVHNAKTKPREEQYNSTYRVVSVLTVLHQDWLNGKEYKCKVSNKALGAPIEKTISKAKGQPREPQVYTLPPSREEMTKNQVSLTCLVKGFYPSDIAVEWESNGQPENNYKTTPPVLDSDGSFFLYSRLTVDKSRWQQGNVFSCSVMHEALHNHYTQKSLSLSPGK
light 2: DIRMTQTTSSLSASLGDRVTISCRASQDISNYLNWYQQKPDGTVKLLIYYTSRLHSGVPSRFSGSGSGTDYSLTISNLEQEDIATYFCQQGNTLPWTFGGGTKLEIKRTVAAPSVFIFPPSDEQLKSGTASVVCLLNNFYPREAKVQWKVDNALQSGNSQESVTEQDSKDSTYSLSSTLTLSKADYEKHKVYACEVTHQGLSSPVTKSFNRGEC
notes: Made by controlled Fab-arm exchange; also called anti-C4BP x anti-DNP
Take B2: the binding result in assay [3] is given as “binds”.

B3: Anti-FH F405L LALAPG, Anti-biotin K409R LALAPG (bispecific antibody, human IgG1, kappa, L234A L235A)
heavy 1: EVQLQQSGPELVKPGASVKISCKASGYSFTGYFIHWVKQSHVKSLEWFGRINPYNGATDYNQNFKDKAILTIDESSSTAYMEIHSLTSDDSAVYYCARGLFLDYWGQGTTLTVSSASTKGPSVFPLAPSSKSTSGGTAALGCLVKDYFPEPVTVSWNSGALTSGVHTFPAVLQSSGLYSLSSVVTVPSSSLGTQTYICNVNHKPSNTKVDKRVEPKSCDKTHTCPPCPAPEAAGGPSVFLFPPKPKDTLMISRTPEVTCVVVDVSHEDPEVKFNWYVDGVEVHNAKTKPREEQYNSTYRVVSVLTVLHQDWLNGKEYKCKVSNKALGAPIEKTISKAKGQPREPQVYTLPPSREEMTKNQVSLTCLVKGFYPSDIAVEWESNGQPENNYKTTPPVLDSDGSFLLYSKLTVDKSRWQQGNVFSCSVMHEALHNHYTQKSLSLSPGK
light 1: DILMTQSPSSMSVSLGDTVSITCHASQGITSNIGWLQQKPGKSFKGLIYHGTNLEDGVPSRFSGSGSGADYSLTISSLESEDFADYYCVQYAQFPWTFGGGTKLEIKRTVAAPSVFIFPPSDEQLKSGTASVVCLLNNFYPREAKVQWKVDNALQSGNSQESVTEQDSKDSTYSLSSTLTLSKADYEKHKVYACEVTHQGLSSPVTKSFNRGEC
heavy 2: QVKLQESGPGLVAPSQSLSITCTVSGFSLTAYGVDWVRQPPGKGLEWLGVIWGGGRTNYNSGLMSRLSIRKDNSKSQVFLTMNSLQTDDTAKYYCVKHTNWDGGFAYWGQGTTVTVSSASTKGPSVFPLAPSSKSTSGGTAALGCLVKDYFPEPVTVSWNSGALTSGVHTFPAVLQSSGLYSLSSVVTVPSSSLGTQTYICNVNHKPSNTKVDKRVEPKSCDKTHTCPPCPAPEAAGGPSVFLFPPKPKDTLMISRTPEVTCVVVDVSHEDPEVKFNWYVDGVEVHNAKTKPREEQYNSTYRVVSVLTVLHQDWLNGKEYKCKVSNKALGAPIEKTISKAKGQPREPQVYTLPPSREEMTKNQVSLTCLVKGFYPSDIAVEWESNGQPENNYKTTPPVLDSDGSFFLYSRLTVDKSRWQQGNVFSCSVMHEALHNHYTQKSLSLSPGK
light 2: DVVMTQSPLSLPVSLGDQASISCRSGQGLVYSNGDTYLHWYLQKPGQSPKLLIYKVSNRFSGVPDRFSGSGSGTDFTLKISRVEAEDLGVYFCSQSTHFPFTFGSGTKLEIKRTVAAPSVFIFPPSDEQLKSGTASVVCLLNNFYPREAKVQWKVDNALQSGNSQESVTEQDSKDSTYSLSSTLTLSKADYEKHKVYACEVTHQGLSSPVTKSFNRGEC
notes: Made by controlled Fab-arm exchange; also called anti-FH x anti-biotin
In the case of B3, the binding result in assay [4] is given as “binds”.

The values above are taken from patent publication US20260258117A1 (ACADEMISCH ZIEKENHUIS LEIDEN H O D N LUMC, published 2026).
